Substrate in series [1]: CC(=O)SCCNC(=O)CCNC(=O)[C@H](O)C(C)(C)COP(=O)(O)OP(=O)(O)OC[C@H]1O[C@@H](n2cnc3c(N)ncnc32)[C@H](O)[C@@H]1OP(=O)(O)O
The experiment in a line: purified protein. The settings on record: pH 7.5; 25.0 °C.

Substrate in series [2]: CC(C)C(=O)C(=O)O
Put plainly: purified protein. The settings on record: pH 7.5; 25.0 °C.

B1: MtIPMS (α-isopropylmalate synthase from Mycobacterium tuberculosis) (Mycobacterium tuberculosis H37Rv) (protein)
chain: MTTSESPDAYTESFGAHTIVKPAGPPRVGQPSWNPQRASSMPVNRYRPFAEEVEPIRLRNRTWPDRVIDRAPLWCAVDLRDGNQALIDPMSPARKRRMFDLLVRMGYKEIEVGFPSASQTDFDFVREIIEQGAIPDDVTIQVLTQCRPELIERTFQACSGAPRAIVHFYNSTSILQRRVVFRANRAEVQAIATDGARKCVEQAAKYPGTQWRFEYSPESYTGTELEYAKQVCDAVGEVIAPTPERPIIFNLPATVEMTTPNVYADSIEWMSRNLANRESVILSLHPHNDRGTAVAAAELGFAAGADRIEGCLFGNGERTGNVCLVTLGLNLFSRGVDPQIDFSNIDEIRRTVEYCNQLPVHERHPYGGDLVYTAFSGSHQDAINKGLDAMKLDADAADCDVDDMLWQVPYLPIDPRDVGRTYEAVIRVNSQSGKGGVAYIMKTDHGLSLPRRLQIEFSQVIQKIAEGTAGEGGEVSPKEMWDAFAEEYLAPVRPLERIRQHVDAADDDGGTTSITATVKINGVETEISGSGNGPLAAFVHALADVGFDVAVLDYYEHAMSAGDDAQAAAYVEASVTIASPAQPGEAGRHASDPVTIASPAQPGEAGRHASDPVTSKTVWGVGIAPSITTASLRAVVSAVNRAAR
As for B1, in the series “purified protein [1]”, the Km came out at 42 ± 12 µM and the kcat/Km was found to be 80000 ± 20000 M⁻¹ s⁻¹. Besides, in the series “purified protein [2]”, the Km is 6.4 ± 1.4 µM and the specificity constant (kcat/Km) amounted to 500000 ± 130000 M⁻¹ s⁻¹.

Broadly, the Km is the substrate concentration at which the rate is half of its maximum. The term kcat/Km denotes the second-order rate constant that governs catalysis at low substrate concentration.

(Values after article PMC4025573.)
